Measured values taken from US20080160023.

Key:
[1] = molecular target: T1, recombinant mouse Scp2 with C-terminal myc-6xHis tag, P32020
T1 chain: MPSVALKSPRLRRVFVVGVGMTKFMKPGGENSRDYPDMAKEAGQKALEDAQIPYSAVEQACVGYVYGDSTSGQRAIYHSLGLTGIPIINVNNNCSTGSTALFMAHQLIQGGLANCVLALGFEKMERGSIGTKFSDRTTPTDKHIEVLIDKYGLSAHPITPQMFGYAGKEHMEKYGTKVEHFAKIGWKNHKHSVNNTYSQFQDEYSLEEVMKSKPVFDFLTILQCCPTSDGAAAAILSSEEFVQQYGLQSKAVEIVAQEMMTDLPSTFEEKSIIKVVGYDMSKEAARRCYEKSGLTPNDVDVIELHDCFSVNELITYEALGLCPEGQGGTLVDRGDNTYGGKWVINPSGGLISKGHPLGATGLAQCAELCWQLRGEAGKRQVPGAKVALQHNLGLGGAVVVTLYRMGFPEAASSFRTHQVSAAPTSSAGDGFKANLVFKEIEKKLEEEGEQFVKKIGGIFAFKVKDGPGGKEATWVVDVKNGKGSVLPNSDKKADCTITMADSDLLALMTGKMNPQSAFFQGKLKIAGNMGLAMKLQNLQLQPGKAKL

[2] = molecular target: T2, recombinant rat Acox1 with C-terminal myc-6xHis tag, P07872
T2 chain: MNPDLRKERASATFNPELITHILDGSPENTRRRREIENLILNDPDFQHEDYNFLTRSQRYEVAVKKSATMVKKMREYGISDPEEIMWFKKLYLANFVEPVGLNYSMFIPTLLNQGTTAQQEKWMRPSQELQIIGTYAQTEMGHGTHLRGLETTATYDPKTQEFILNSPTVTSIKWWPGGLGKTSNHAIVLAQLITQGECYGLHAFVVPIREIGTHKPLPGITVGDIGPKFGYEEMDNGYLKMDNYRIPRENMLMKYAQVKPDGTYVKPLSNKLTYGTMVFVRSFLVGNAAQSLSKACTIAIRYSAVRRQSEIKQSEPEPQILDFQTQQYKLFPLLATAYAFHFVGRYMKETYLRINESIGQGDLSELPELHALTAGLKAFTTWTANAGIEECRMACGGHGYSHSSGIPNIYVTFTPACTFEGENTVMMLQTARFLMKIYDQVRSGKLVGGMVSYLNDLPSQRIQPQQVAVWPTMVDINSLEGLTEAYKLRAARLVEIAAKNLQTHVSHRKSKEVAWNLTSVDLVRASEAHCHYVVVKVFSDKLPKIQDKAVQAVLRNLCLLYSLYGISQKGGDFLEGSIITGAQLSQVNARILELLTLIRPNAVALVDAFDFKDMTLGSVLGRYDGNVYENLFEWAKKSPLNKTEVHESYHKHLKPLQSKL

[3] = molecular target: T3, recombinant rat Acaa1 with 6xHis N-terminal tag, P07871
T3 chain: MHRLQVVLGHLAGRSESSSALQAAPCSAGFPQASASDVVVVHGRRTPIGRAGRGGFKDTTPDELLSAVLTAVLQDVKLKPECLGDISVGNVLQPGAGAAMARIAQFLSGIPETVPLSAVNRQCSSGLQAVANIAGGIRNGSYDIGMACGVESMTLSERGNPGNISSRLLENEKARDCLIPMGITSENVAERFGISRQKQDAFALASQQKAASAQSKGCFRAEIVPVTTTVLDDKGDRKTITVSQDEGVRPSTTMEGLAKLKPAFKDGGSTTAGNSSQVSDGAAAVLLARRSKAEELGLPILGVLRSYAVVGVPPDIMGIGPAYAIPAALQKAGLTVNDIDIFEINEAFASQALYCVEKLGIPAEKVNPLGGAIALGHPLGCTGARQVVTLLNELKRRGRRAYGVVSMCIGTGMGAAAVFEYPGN

B1: recombinant Tysnd1-FLAG purified from COS-7 cells (protein)
chain 1: MGRQWGPSMRVAEQAGCVVSASRAGQPDAGSWSCSGVILSRNPGLVLCHGGIFTPFLRTGSAALTQTGTAFLPGDSCSDDLRLHVQWGPTAASPAGRADQELPGLCTPQCASLGLEPGAPSRARARPLQPPRPAQLLLLLSCPAFRSHFARLFGADAVDQWHFVSSAPDDAVSEEEEEDQLRALGWFALLRVQRGAAAEERRGPVVTVAPLGAVVKGAPLLACGSPFGAFCPDIFLNTLSRGVLSNAAGPLLLTDARCLPGTEGGGVFAARPAGALVALVAAPLCWKAREWVGLTLLCAAAPLLQVARWALARLHPGSASLSVLLPPPDVSTPRGLPLRDLGPPWAAAAVLVECGTVWGSGVVVAPRLVVTCRHVAPREAARVLVHSATPKNVAIWGQVVFATQETSPYDIAVVSLEEELNGVPTPVPAGHFHEGEPVSVVGFGVFGQACGPSVTSGILSAVVRVDGSPVMLQTTCAVHGGSSGGPLFSSGSGDLLGIVASNTRDNNTGATYPHLNFSIPITVLQPALKQYSQTGDLGGLRELDHTTEPVRVVWRLQRPLSE
chain 2: VPRSKL
- in vitro cleavage (Western blot with anti-cMyc antibody) [1]: Scp2 was processed to generate C-terminal fragment of 16 kDa
- in vitro cleavage (Western blot with anti-cMyc antibody) [2]: Acox1 was cleaved to produce C-terminal fragment of 28 kDa
- in vitro cleavage (Amido Black staining of the membrane) [3]: Incubation of Tysnd1 with Acaa1 resulted in the removal of 3 kDa PTS2-containing N-terminal propeptide to produce mature Acaa1
